The target of experiment [1] is hVEGF (human) (UniProt P15692). As to the kind of experiment: SPR; 37 C. Particulars: Fab. On the technique in general: Surface plasmon resonance follows binding to a sensor surface in real time, without labels.
Experiment [2] concerns the target hVEGF (human) (UniProt P15692). Nature of the experiment: SPR; 25 C. Particulars: Fab.
The target in experiment [3] is hVEGF (human) (UniProt P15692). As to the kind of experiment: competition; 25 C. Particulars: Fab.
Experiment [4] addresses hVEGF (human) (UniProt P15692). Nature of the experiment: SPR. The following applies: Fab.
The target of the next experiment is mVEGF (mouse) (UniProt Q00731). Nature of the experiment: competition; 25 C. The following applies: Fab.
For experiment [5], the target named is T1, murine VEGF (mVEGF) (mouse) (UniProt Q00731).
T1 sequence (looked up): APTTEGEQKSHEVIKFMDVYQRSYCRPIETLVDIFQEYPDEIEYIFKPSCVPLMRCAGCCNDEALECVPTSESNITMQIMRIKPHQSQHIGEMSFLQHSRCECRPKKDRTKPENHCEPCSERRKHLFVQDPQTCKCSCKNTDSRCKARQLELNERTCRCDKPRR
Nature of the experiment: BIAcore or solution binding ELISA, control Fab.

What is called Kd is the constant that tells how readily two partners part at equilibrium. In general, IC50 refers to the concentration that gives 50% inhibition. A high value points to lower potency.

Sequence of Y0317 Fab (VH): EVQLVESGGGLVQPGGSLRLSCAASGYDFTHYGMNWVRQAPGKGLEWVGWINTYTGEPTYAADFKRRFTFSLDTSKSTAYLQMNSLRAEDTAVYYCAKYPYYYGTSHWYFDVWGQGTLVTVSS
Sequence of Y0317 Fab (VL): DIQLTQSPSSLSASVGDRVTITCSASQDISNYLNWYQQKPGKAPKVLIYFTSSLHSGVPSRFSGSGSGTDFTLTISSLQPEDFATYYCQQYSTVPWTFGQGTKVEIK

For the substance Avastin, the Kd worked out at 12.9 nM with hVEGF (human) [1], 2.9 nM with hVEGF (human) [2] and 2.9 nM with hVEGF (human) [4]. The substance also displayed an IC50 with hVEGF (human) [3] of 1.1 nM.

Turning to Y0317, the Kd with hVEGF (human) [1] is 0.11 nM; in the experiment with hVEGF (human) [2], 0.2 nM. Also, the IC50 is 300 nM with mVEGF (mouse) and 0.02 nM in the experiment with hVEGF (human) [3].

Y0317 Fab: the Kd in experiment [5] is 350 nM.

These data come from US20070020267A1.
